Laboratory results from patent US20180202002.

Biological target: T1, N-terminal tagged Cyclin D1 (FLAG-HA-Cyclin D1, tag at the N-terminus), P25322
T1 chain: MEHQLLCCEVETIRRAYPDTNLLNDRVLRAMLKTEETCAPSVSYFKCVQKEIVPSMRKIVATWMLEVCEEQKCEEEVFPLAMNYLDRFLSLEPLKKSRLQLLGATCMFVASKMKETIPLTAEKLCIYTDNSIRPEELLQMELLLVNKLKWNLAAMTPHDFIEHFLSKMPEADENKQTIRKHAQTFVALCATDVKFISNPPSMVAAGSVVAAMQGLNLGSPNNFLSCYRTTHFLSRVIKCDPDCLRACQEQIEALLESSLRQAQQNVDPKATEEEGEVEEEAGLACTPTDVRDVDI

B1: caspase 3 (protein)
chain: MENNKTSVDSKSINNFEVKTIHGSKSVDSGIYLDSSYKMDYPEMGICIIINNKNFHKSTGMSSRSGTDVDAANLRETFMGLKYQVRNKNDLTREDILELMDSVSKEDHSKRSSFVCVILSHGDEGVIYGTNGPVELKKLTSFFRGDYCRSLTGKPKLFIIQACRGTELDCGIETDSGTDEEMACQKIPVEADFLYAYSTAPGYYSWRNSKDGSWFIQSLCSMLKLYAHKLEFMHILTRVNRKVATEFESFSLDSTFHAKKQIPCIVSMLTKELYFYH
levels of cleaved PARP (Western blot) after treatment with 5-FU: The levels of cleaved PARP increase in RAS or ErbB2 cancer cells after treatment with 5-FU, although limited by the Cyclin D1
